Reference: the supplement of paper PMC12636428

These sequences were tested on Saccharomyces cerevisiae (assay: transcriptional activation domain activity (GFP:mCherry ratio, weighted mean of sorted bins, harmonized to initial dataset scale) (arbitrary fluorescence ratio units); higher = stronger transcriptional activation). Details: beta-estradiol 1 µM; induction time 4 h.
Outline: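 Barcoded protein tiles fused to an estradiol-inducible synthetic transcription factor were integrated at the yeast URA3 locus, in diploids carrying a GFP reporter. Cultures were diluted 1:5 into SC with 1 uM beta-estradiol, held 4 hours at 30 °C, sorted into 8 bins by GFP:mCherry ratio, and barcodes sequenced. Tiles under 50 reads were discarded. Activation activity is the read-weighted mean of bin median fluorescence, averaged across barcodes, then linearly mapped onto the initial dataset scale.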
“VPLLDSNFISLNSNPLLYIQNQNPNSNSSVKVSRSQTFEPSKELIDLVFPWLS” was tested, and the “transcriptional activation domain activity” value was 122000.
For “ATAAAAVKSPRSKSKEPKKSLDAAAAVAATSPAPVAAEEPAAAAVVEEPAKPA”, the “transcriptional activation domain activity” value was 41400.
“MEGGRGSRGSHENNELFFFLSLHSRFFFFYLFIYFSLLFFSFTIYFMVFFFFF” was tested, and the “transcriptional activation domain activity” value was 54600.
With “ASTAGPAAGGSVSAAPKRRGRPPKRKAEPEQGAEAQPAKKPRGRPRKSAVVEA” the “transcriptional activation domain activity” value was 12000.
With “MLPRQRHSFWSVVTYLIMYYIIMYAFLYGIKYTHWIYFLSNHLVMWLLLLHFL” the “transcriptional activation domain activity” value was 41100.
For “MIPLSHRKHKLISLPYLLVSSWLFLSVTLSIPLLQSYIAKHYSTGLVLFLLYF”, the “transcriptional activation domain activity” value was 71900.
For “MILNGELERCRESLHIVSEYVHSILRLNVLCLRLLYRRMDPSREPVDLFEVAV”, the “transcriptional activation domain activity” value was 54500.
In the case of “RLYMLCTKIFLLLVGQRSEVGLTYASCITFMLCAAIPSESFVRNLVLLRVMLA”, the “transcriptional activation domain activity” value is reported as 58400.
In the case of “GGAAGARKGAKRPKRAVGGAAAAAGGKKSADSDDEKPKEKSAPSGGGSKVGGI”, the “transcriptional activation domain activity” value is reported as 36600.
In the case of “CIKATLAPDSAIFVGPSALIFHVLQLSILIILLLKTGGPGSGKGTQCTRLAKD”, the “transcriptional activation domain activity” value is reported as 29600.
For “KAGGTGAKQEKEPQGEGRETEGNQAKANRRTKGGTARGEGAAGGRRRRKGEES”, the “transcriptional activation domain activity” value was 35000.
“SGPSRERYFLFVFLGSFFWYFFPGYLFQALSWFSWVTWIWPHDTAIAQLFGYF” was tested, and the “transcriptional activation domain activity” value was 52100.
For “KATYHAMLHICRDIAKETLFFFHLVQEHPDDLPLVQSVLILLISCISRVVCTL”, the “transcriptional activation domain activity” value was 55000.
With “DPYDWSTYSNLIDEERIFVPEVQSSDHINDKFLTVANVTGEGSEGLIMQWLSC” the “transcriptional activation domain activity” value was 133000.
With “RRERKERKRARKEKDRRKRRHRRSQTDSDEEDRERHRDSRRKRSRSASRERRE” the “transcriptional activation domain activity” value was 20000.
In the case of “QSNWVEGFSTHHEPFRPHKRRIKSVIDCSERTAVLVADLIGGLPCVVELKPKW”, the “transcriptional activation domain activity” value is reported as 64400.
“IHLFISSFPLLFICSLPYAFLSFFPHLFISYFLSSFYSLSTHLFHSFFPFLVI” was tested, and the “transcriptional activation domain activity” value was 59400.
“MADAVADAAANLKLEEGAAENAPKLQLDEETGEWVSKGELKKRLAKRAKKASK” was tested, and the “transcriptional activation domain activity” value was 14100.
“MIEMMAFRIALGFVGGLGLDGVWCGFFFPFKFVVFSFLHTLSISLGLDFFFLL” was tested, and the “transcriptional activation domain activity” value was 91700.
In the case of “EEPVPKKRGRGRPPKNPAAKAKAAAAAAAAKKAERLPKVRVHKAHTPLRENIH”, the “transcriptional activation domain activity” value is reported as under 6570.
“LLHLAISQLQAYLDRFRTRLNAVHALHLKRLILFLTALDQFTCARVAGMKVRS” was tested, and the “transcriptional activation domain activity” value was 33700.
For “GSSGSGAGSKGGPAPRGSSAKRSSGSGSGGGGRKGGGSAGKGSGGGGGRGRSG”, the “transcriptional activation domain activity” value was 28600.
With “WLFCFICYPLPLHPISYQIAPPFYSIFFVILLTIVFFLLLFLFVSSFLYLRLG” the “transcriptional activation domain activity” value was 70000.
For “ERVGERRGSGKTERQRAHDAPEREGARGEKGRRARGTNGEGRGGEEREVRQEG”, the “transcriptional activation domain activity” value was 25600.
For “GSETTQEQRNIEGTDHGSGGGGGGSGEGGGGNEGGGGGGGGGSGGGGKGGGGE”, the “transcriptional activation domain activity” value was 30000.
“GFCMASKTLALVLRHLRRYRWCLVARIRRKATEISTRFCALGGILIIYIRNVS” was tested, and the “transcriptional activation domain activity” value was 73500.
For “MNLSRYAVVLATQWGILIMLAMNQLCIPSFLTMFAYIPTKVLQFFHYFIVSLF”, the “transcriptional activation domain activity” value was 47700.
“MAPVTQTEWPRQRALHSKSRNGCTTCKQRRVKCDEGKPVWPSAARTAGADRSS” was tested, and the “transcriptional activation domain activity” value was 50600.
For “AHVGVGISGVEGLQAARSADIAISQFRYLKKLLLVHGAWSYRRLSKLILYSFY”, the “transcriptional activation domain activity” value was 82600.
“LQAMLLLAHMILAIPFFSLFCRLLLLHPTNPDSPVLWMSLHVFFTYLWSLALV” was tested, and the “transcriptional activation domain activity” value was 66000.
“MGSLLLFMGIDEGSFLCGFFFSIFFLLLAFFTSYGCFCDKFFFLLYLLLLLRK” was tested, and the “transcriptional activation domain activity” value was 44300.
In the case of “MMKKKNWSYVVFWRGLPFFFFFFFFFFGEHFVLIFTSFVLFLLSLLCAGCVWV”, the “transcriptional activation domain activity” value is reported as 25000.
For “LSILIYESIPERRQSSLARSDGISAMDVCVSLLVTLAHLSPLVSRFGGVTING”, the “transcriptional activation domain activity” value was 72500.
“EPERKQSRRRQSRGRGRKGVADSDTESVPRSDVSASGGRRNRQRQRQKGGKQQ” was tested, and the “transcriptional activation domain activity” value was 48900.
With “AANFHDTHGFGSMPQHLKKKPKAEGEGAGKAEEVKAEVSATAEAEESATAKAE” the “transcriptional activation domain activity” value was 34800.
In the case of “LQASREEIRKKVSEDDHGLTRFRRQVVLALDLYIWEPICISLRFLRLVMIFVP”, the “transcriptional activation domain activity” value is reported as 52400.
With “GASSSAAAAGSSEEAPKKKRGRPPKEKKADESGAETEPAPKRKRGRPPKNPKP” the “transcriptional activation domain activity” value was 21200.
For “SQKNGTSAANALVYGGFSHTVTQHTIKDVSIDGTWLEEEIDGFKSDTLGFHVD”, the “transcriptional activation domain activity” value was 72800.
For “ILRCYLQYIFALTLVFFWLLYTLTCSISQFSRHLRSWTCWIFYSLYRRILFLG”, the “transcriptional activation domain activity” value was 56200.
With “MVSFYYICSCAGSCWMLNARLHLWGLIFTVIFGDTVHVICLLFWFYFYRPPPF” the “transcriptional activation domain activity” value was 41200.
With “MVVFLYLVIYHWSKVNRVSFRCAAFCCIAHLIENVFFVIMVKVKGPSKFCAGI” the “transcriptional activation domain activity” value was 76900.
For “EAAPKEDAAPEPAPEKESKPEKAPEPKAEASKPAAPPASEKKDLKTAPKEETK”, the “transcriptional activation domain activity” value was 28500.
“ASSAPAAASSAPDAASSAPAAASSAPAAASSAPPAAASPAASPAAGGFQLQNG” was tested, and the “transcriptional activation domain activity” value was 38200.
In the case of “EEEEDAETPAQESEEEKAASEPSSPPVVQQIPRKKRLGRPPKNRPPDWNAVEP”, the “transcriptional activation domain activity” value is reported as 37600.
With “GDADEDGNGHGTHCSGTVAGKKYGVAKKANVYAVKVLRSNGSGSMSDVVKGVE” the “transcriptional activation domain activity” value was 30300.
“RWQYATLFFSGVSGGATLALSLCVITHPSLLTRIVVVCIFLTLISAFTILPIS” was tested, and the “transcriptional activation domain activity” value was 38500.
In the case of “AAEGGDSVAKSSPAKPKQSKQSKKRPRDEDGEGAGEAPASKKQPKAKAKAAKA”, the “transcriptional activation domain activity” value is reported as 26100.
With “MIGHWFVLLNLISNWIVLSSFSILFYIYIYMPLYCHYAPFIFMLFLLYIPLLI” the “transcriptional activation domain activity” value was 48800.
For “LATTDLTHRQNGEEPIQNEIAKLFHSGGDSVVDILFSQTSATEFVTVGGTGNV”, the “transcriptional activation domain activity” value was 64400.
With “HPNDAGDENDGEGESAAPAKEKEPAGTAATPASYQLQSIACHKGTSIHAGHYV” the “transcriptional activation domain activity” value was 33100.
“AKEEKKEEKKEEAKAAEEVKPEETPAVEETKAEEAKVDEAKTEETPAVAAAAA” was tested, and the “transcriptional activation domain activity” value was 15700.
With “FLSLLVLVCWVPCFVIMEVYLKSLTFNSVPYPPIHCFTPEGSHILYLCWGLIA” the “transcriptional activation domain activity” value was 32200.
With “HHDNVNPTIPPPDNYILNNENDDGLDNLLGMDYYNIDDLLTQELRDLDIPLVP” the “transcriptional activation domain activity” value was 140000.
In the case of “TLRVLLLQISPLAYARGLKDFLIHLISWTDGTWDSLDPLPWWWLYHVYWPLQF”, the “transcriptional activation domain activity” value is reported as 81000.
In the case of “LRAMVMAAPYDGDINITFTKHRSKIYIRPNNTLSELLSNGWIKFLAIILFIYP”, the “transcriptional activation domain activity” value is reported as 36600.
In the case of “KARKRTRERKKEKEGRARTKGEGDRYEGRKFEISGTVEVKRERCEGTRRTKPK”, the “transcriptional activation domain activity” value is reported as 9070.
For “MADFVSIWLVVVVDYHFYIYIVFAREQLFRHFCLVSSALAVGLSLFWLMLCFG”, the “transcriptional activation domain activity” value was 68200.
With “TVDSLLTFVPFFLLTLLFLLISLFLFILFFLIFFFLFIPFSSFLFIYFSLSFH” the “transcriptional activation domain activity” value was 32200.
“GGKRKGEQGHGAGQRGKGDGQGRGGRGRGRGEGGEEKGRRAERKEERGRRGRS” was tested, and the “transcriptional activation domain activity” value was 16300.
“VPWSRSGHAIDLRFVRSFVAALVFLLLLLFLLLLLLLLLLLLLLLFLLFFFVF” was tested, and the “transcriptional activation domain activity” value was 37200.
For “VARKLLNTIHPALGPLHACSVLRKIRVLICMAGEHATSTYPLEMLLHSLRVFV”, the “transcriptional activation domain activity” value was 44700.
With “DANASSSSTSSTQANNYIDFHWNNIKPELRDLICQSYKDFLINELGPDQIDLP” the “transcriptional activation domain activity” value was 51100.
With “GSRGGRGGRGGSGGRGGRGGSSGGGGRESSGGRSERGGRRGGSGASGTKRLGK” the “transcriptional activation domain activity” value was 15100.
For “MDEEADEKGGKRRTSRACDGCRRRKIRCIASGEANSSEKAPCVNCAQSKLSCT”, the “transcriptional activation domain activity” value was 27500.
With “AAAKPVATKSSSKAKTPAAASISKSKAKPVAAAARGGGKKRKVASSPAPSVVA” the “transcriptional activation domain activity” value was 9030.
“LQVVIEECDLMPTVAVLLRDAKKVFPERDGFFLYRQMAISVVCVYILCSLFAL” was tested, and the “transcriptional activation domain activity” value was 67900.
In the case of “MLRCLLSFLLYIYQFKYCNAQVSINVPIDGRQFKFIESFQFLNLPFNVITSTV”, the “transcriptional activation domain activity” value is reported as 67900.
In the case of “MISWLLCFFGFRGGFFYMVFFLICTIFCFAVFGFRFLQLSTFFFHNIFLMFFF”, the “transcriptional activation domain activity” value is reported as 51900.
In the case of “LALNDISRSVVAAGRVDGAVHITGVRDAVVAVAARQVRVHECRNVDLYLRCAS”, the “transcriptional activation domain activity” value is reported as 44800.
“GPFQSSAQVDGTLDGDLLQELLIAFLSRKKRFVVWKVMKVLFATLLKRMGAHD” was tested, and the “transcriptional activation domain activity” value was 55600.
For “EDDDGKGNKQKTSEKRKLQNRQAQRNFRERKEKVSCPSSPAAPRASQGTRGSC”, the “transcriptional activation domain activity” value was 23900.
In the case of “FVGPQLCRDDAWLHTSIQFTRNVGITRNLLRMLPAVVRPIVARLLPSYWRIYS”, the “transcriptional activation domain activity” value is reported as 41700.
“YGCNELIFNPLIDWWRKGPITRQLRTFMWSDAPLHYKIGMLSYMFSYYALSGA” was tested, and the “transcriptional activation domain activity” value was 36300.
“LTVLGWLSTRKNMSFKSTPSNIRQSLKYSHIPLCLFYSSFTKFFLLLLLSIWD” was tested, and the “transcriptional activation domain activity” value was 42100.
With “CYNLNLVFNWIIRCIISIFLVFMISFLPLFLQELVECGTWKAIWCLMKQFTSL” the “transcriptional activation domain activity” value was 35400.
“MSFVDLHGIWGFFLPFIFSVINWYLNYVLILTLLFFLCHVRIWVLYLVNIYRE” was tested, and the “transcriptional activation domain activity” value was 55000.
“EDEETARPKRKSPSAVLKSHTARVSRAVFGRDAKGASAYSCGFDSTVRTWDVE” was tested, and the “transcriptional activation domain activity” value was 49700.
With “MDLFFLLHFFIFIFLWHWLGSCLVWLFLVWLWGVFSFFFYYIFSCVSFFGSAI” the “transcriptional activation domain activity” value was 61300.
“GTGDEQTGSGEKGKKKKASRACYHCQKAHLTCDDARPCGRCVKRNLASTCTDG” was tested, and the “transcriptional activation domain activity” value was 40600.
In the case of “MPILMQFCFIMALNGICNSMHLYAAYNLRTHVLARVFWSILWLLLRSLCSAGW”, the “transcriptional activation domain activity” value is reported as 70700.
“SAHWILKAYYTDRRVLFGFCFGNEAFFMLIYLMEYLDGFCFYFVSFLALLAFP” was tested, and the “transcriptional activation domain activity” value was 57200.
“AAAGRRGPGKRKGSRTSPGTAGGGGGRGGRGGGGRGGGARGGGAGGEAAGGAT” was tested, and the “transcriptional activation domain activity” value was 29900.
With “MWCTRWFLPLLLLPLPTAPPFFLALFLISLTLHSKPCFYCILLLTTLFLTSCY” the “transcriptional activation domain activity” value was 45300.
